Reference: the supplement of paper PMC9112550, “Optimization of the antimicrobial peptide Bac7 by deep mutational scanning” (BMC Biology, 2022)

System: Escherichia coli TOP10
Assay: shrunken log2 fold change of peptide-encoding DNA abundance (4.5 h post-induction vs induction); higher = less antimicrobial activity (less host growth inhibition)
Conditions: time post-induction: 4.5 h; library: site-saturation at positions 5, 18, 19, 20
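Further: peptides expressed intracellularly from a pBAD plasmid library in pooled LB shake-flask culture, induced with 0.3% L-arabinose, DNA abundance read by NGS, three biological replicates, DESeq2 with apeglm shrinkage.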

Row | Sequence | shrunken log2 fold change
1 | RRIRRRPPRLPRPRPRPSDPPRP | -0.00173
2 | RRIRKRPPRLPRPRPRPNFWPRP | -0.152
3 | RRIRIRPPRLPRPRPRPKPSPRP | 0.128
4 | RRIRERPPRLPRPRPRPCGSPRP | 0.0206
5 | RRIRMRPPRLPRPRPRPNSMPRP | -0.22
6 | RRIRQRPPRLPRPRPRPDGGPRP | 0.255
7 | RRIRARPPRLPRPRPRPLMKPRP | 0.106
8 | RRIRRRPPRLPRPRPRPVVRPRP | 0.274
9 | RRIRARPPRLPRPRPRPGIHPRP | 0.37
10 | RRIRGRPPRLPRPRPRPVGQPRP | 0.145
11 | RRIRVRPPRLPRPRPRPMGGPRP | 0.062
12 | RRIRVRPPRLPRPRPRPALTPRP | 0.117
13 | RRIRNRPPRLPRPRPRPWFAPRP | 0.801
14 | RRIRIRPPRLPRPRPRPVDIPRP | -0.405
15 | RRIRLRPPRLPRPRPRPHKNPRP | -0.256
16 | RRIRPRPPRLPRPRPRPCHWPRP | 0.0406
17 | RRIRCRPPRLPRPRPRPEYWPRP | -0.0559
18 | RRIRIRPPRLPRPRPRPPCIPRP | -0.0558
19 | RRIRRRPPRLPRPRPRPCMFPRP | -0.0745
20 | RRIRDRPPRLPRPRPRPDQYPRP | 0.00642
21 | RRIRKRPPRLPRPRPRPFFNPRP | 0.0296
22 | RRIRDRPPRLPRPRPRPEECPRP | -0.00963
23 | RRIRSRPPRLPRPRPRPCVEPRP | 0.0654

Row | Sequence | shrunken log2 fold change
24 | RRIRTRPPRLPRPRPRPFRVPRP | -0.108
25 | RRIRRRPPRLPRPRPRPHWQPRP | 0.28
26 | RRIRMRPPRLPRPRPRPMTMPRP | 0.178
27 | RRIRGRPPRLPRPRPRPMAIPRP | 0.0503
28 | RRIRARPPRLPRPRPRPMSNPRP | -0.433
29 | RRIRVRPPRLPRPRPRPGGGPRP | 0.695
30 | RRIRWRPPRLPRPRPRPETWPRP | 0.502
31 | RRIRRRPPRLPRPRPRPWDSPRP | 0.0548
32 | RRIRARPPRLPRPRPRPCDLPRP | 0.15
33 | RRIRYRPPRLPRPRPRPKVSPRP | -0.0576
34 | RRIRVRPPRLPRPRPRPSRCPRP | -0.101
35 | RRIRWRPPRLPRPRPRPRTIPRP | -0.0129
36 | RRIRKRPPRLPRPRPRPVQWPRP | 0.743
37 | RRIRKRPPRLPRPRPRPFRTPRP | 0.000407
38 | RRIRSRPPRLPRPRPRPDTSPRP | -0.0998
39 | RRIRHRPPRLPRPRPRPASEPRP | -0.131
40 | RRIRARPPRLPRPRPRPCQYPRP | -0.411
41 | RRIRKRPPRLPRPRPRPCREPRP | 0.368
42 | RRIRPRPPRLPRPRPRPERCPRP | 0.271
43 | RRIRNRPPRLPRPRPRPHDGPRP | -0.378
44 | RRIRQRPPRLPRPRPRPSMYPRP | -1.39
45 | RRIRWRPPRLPRPRPRPPTSPRP | 0.291
46 | RRIRKRPPRLPRPRPRPFQDPRP | 0.118

Row | Sequence | shrunken log2 fold change
47 | RRIRQRPPRLPRPRPRPVNLPRP | -0.014
48 | RRIRTRPPRLPRPRPRPTDNPRP | -0.302
49 | RRIRLRPPRLPRPRPRPIFKPRP | -0.276
50 | RRIRQRPPRLPRPRPRPMTYPRP | -0.0223
51 | RRIRPRPPRLPRPRPRPRTTPRP | 0.332
52 | RRIRSRPPRLPRPRPRPPGWPRP | 0.193
53 | RRIRGRPPRLPRPRPRPHPIPRP | -0.0927
54 | RRIRVRPPRLPRPRPRPCYYPRP | -0.147
55 | RRIRNRPPRLPRPRPRPAYKPRP | -0.128
56 | RRIRTRPPRLPRPRPRPMVAPRP | 0.0166
57 | RRIRNRPPRLPRPRPRPNWWPRP | -0.0262
58 | RRIRRRPPRLPRPRPRPEGPPRP | 0.568
59 | RRIRGRPPRLPRPRPRPGPGPRP | 1.65
60 | RRIRMRPPRLPRPRPRPYILPRP | -1.08
61 | RRIRVRPPRLPRPRPRPFMMPRP | 0.097
62 | RRIRKRPPRLPRPRPRPRLFPRP | 0.104
63 | RRIRTRPPRLPRPRPRPVCGPRP | 0.179
64 | RRIRKRPPRLPRPRPRPFREPRP | 0.223
65 | RRIRCRPPRLPRPRPRPWCYPRP | -0.831
66 | RRIRVRPPRLPRPRPRPCGPPRP | -0.0876
67 | RRIRIRPPRLPRPRPRPPLFPRP | 0.0406
68 | RRIRKRPPRLPRPRPRPIGMPRP | 0.213
69 | RRIRGRPPRLPRPRPRPLPLPRP | 0.627

Row | Sequence | shrunken log2 fold change
70 | RRIRPRPPRLPRPRPRPVGYPRP | 0.394
71 | RRIRHRPPRLPRPRPRPKWAPRP | 0.279
72 | RRIRTRPPRLPRPRPRPANPPRP | 0.0504
73 | RRIRGRPPRLPRPRPRPIYDPRP | -0.259
74 | RRIRRRPPRLPRPRPRPNVYPRP | 0.0361
75 | RRIRHRPPRLPRPRPRPIYKPRP | -0.393
76 | RRIRGRPPRLPRPRPRPHRYPRP | 0.0948
77 | RRIRGRPPRLPRPRPRPFNLPRP | -0.643
78 | RRIRCRPPRLPRPRPRPFAHPRP | -0.355
79 | RRIRVRPPRLPRPRPRPKKDPRP | -0.262
80 | RRIRLRPPRLPRPRPRPIYLPRP | -0.654
81 | RRIRKRPPRLPRPRPRPDWAPRP | -0.0624
82 | RRIRGRPPRLPRPRPRPTHQPRP | 0.615
83 | RRIRGRPPRLPRPRPRPMIEPRP | 0.953
84 | RRIRERPPRLPRPRPRPDWGPRP | -0.00783
85 | RRIRHRPPRLPRPRPRPGWCPRP | 0.399
86 | RRIRCRPPRLPRPRPRPLTQPRP | 0.189
87 | RRIRFRPPRLPRPRPRPAIDPRP | -0.00326
88 | RRIRGRPPRLPRPRPRPWNEPRP | -0.14
89 | RRIRDRPPRLPRPRPRPFDIPRP | 0.289
90 | RRIRVRPPRLPRPRPRPCETPRP | 0.0572
91 | RRIRDRPPRLPRPRPRPAFEPRP | 0.906
